T1: biotinylated C-terminally Avi-tagged human CerS6 (Homo sapiens, biotin on the Avi tag (in vitro, BirA))
T1 construct: Ceramide synthase 6 (CerS6), Homo sapiens, UniProt Q6ZMG9; A Gly-Gly-Gly-Ser linker stands between CerS6 and the Avi tag, which lies upstream of the TEV cleavage site; also called biotinylated CerS6; Avi-tagged CerS6; not shown: Avi, C-terminal, kept; 10xHis, C-terminal, cleaved; Twin-Strep, C-terminal, cleaved
T1 chain: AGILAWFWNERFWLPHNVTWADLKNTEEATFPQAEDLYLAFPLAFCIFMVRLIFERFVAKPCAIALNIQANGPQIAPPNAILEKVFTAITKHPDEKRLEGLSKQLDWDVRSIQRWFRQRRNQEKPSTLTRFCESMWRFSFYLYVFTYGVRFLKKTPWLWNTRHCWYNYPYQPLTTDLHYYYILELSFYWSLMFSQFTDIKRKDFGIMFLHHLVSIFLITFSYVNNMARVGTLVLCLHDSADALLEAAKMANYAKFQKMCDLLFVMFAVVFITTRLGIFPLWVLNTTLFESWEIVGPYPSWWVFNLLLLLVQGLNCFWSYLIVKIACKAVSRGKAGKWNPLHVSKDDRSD


Experiments:
[1] = biological target: human ceramide synthase 6 (CerS6), truncated at Asp350 (Met1-Asp350) (human) (UniProt Q6ZMG9); assay: cryo-EM structure; CerS6 dimer mixed with a 1.5x molar excess of nanobody (Nb22 or Nb02), 1 h on ice, complex purified by SEC in GDN, 5 mg/ml; the CerS6–Nb22 complex also after incubation with 120 µM FB1; C2 symmetry imposed
[2] = biological target: T1, biotinylated C-terminally Avi-tagged …; assay: BLI; Octet Red 384, Streptavidin SA biosensors loaded with 40 µg/ml biotinylated CerS6, SEC buffer with 0.003% LMNG and 0.0003% CHS; screen of unique nanobodies for slow off rates; conditions: both partners purified
[3] = denaturing intact protein MS; conditions: glycan lost; control: wild-type CerS6 (Met1-Asp350)
[4] = biological target: the molecule itself; assay: cryo-EM structure; CerS6 dimer mixed with a 1.5x molar excess of nanobody (Nb22 or Nb02), 1 h on ice, complex purified by SEC in GDN, 5 mg/ml; the CerS6–Nb22 complex also after incubation with 120 µM FB1; C2 symmetry imposed

Binder | stoichiometry N [1] | binding result [2] | other: presence of covalent palmitoyl-enzyme adduct, other: adduct mass shift [3] | stoichiometry N [4]
nanobody 22 (Nb22), anti-CerS6 camelid nanobody (VHH, alpaca nanobody raised against CerS6 proteoliposomes; its chain is in the deposited models PDB 8QZ6 and 8QZ7 (residues 1-124 modelled); source: WK6 cells, purified from periplasmic extracts (Ni2+-NTA)) VHH: QVQLVESGGGLVQAEGSLRLSCAASGRTFRTYGMGWFRQAPGKEREFVAALNWSGSSTYYADSVKGRFTISRDNAKNTAYLQMNSLKPEDTAVYYCAALRRKAEYGSRSIADFDSWSKGTPVTVSS | 1 per monomer | binds | – | –
nanobody 02 (Nb02), anti-CerS6 camelid nanobody (VHH, alpaca nanobody raised against CerS6 proteoliposomes; its chain is in the deposited model PDB 9EOT (residues 1-123 modelled); source: WK6 cells, purified from periplasmic extracts (Ni2+-NTA)) VHH: QLQFVESGGGLVQAGGSLRLSCAASGRTFSRYAVGWFRQAPGKEREFVASITWNGATTYYADSVKGRFTISRDNAKNTVYLQMNSLKPEDTAVYYCALDLYSYGTRDVADFGSWGKGTRVTVSS | 1 | binds | – | –
CerS6: N18Q (protein) parent chain: MAGILAWFWNERFWLPHNVTWADLKNTEEATFPQAEDLYLAFPLAFCIFMVRLIFERFVAKPCAIALNIQANGPQIAPPNAILEKVFTAITKHPDEKRLEGLSKQLDWDVRSIQRWFRQRRNQEKPSTLTRFCESMWRFSFYLYVFTYGVRFLKKTPWLWNTRHCWYNYPYQPLTTDLHYYYILELSFYWSLMFSQFTDIKRKDFGIMFLHHLVSIFLITFSYVNNMARVGTLVLCLHDSADALLEAAKMANYAKFQKMCDLLFVMFAVVFITTRLGIFPLWVLNTTLFESWEIVGPYPSWWVFNLLLLLVQGLNCFWSYLIVKIACKAVSRGKVSKDDRSDIESSSDEEDSEPPGKNPHTATTTNGTSGTNGYLLTGSCSMDD | – | – | no change, +239.80 vs +238.45 | –
human ceramide synthase 6 (CerS6), truncated at Asp350 (Met1-Asp350) (enzyme, UniProt Q6ZMG9-2 1-350, looked up, palmitoyl (C16:0) chain covalently attached to His211 (covalent intermediate state; transferred to FB1 in the N-palmitoyl FB1-bound state); N-linked glycan on Asn18; loss of the initiator methionine and acetylation of the new N terminus, Ceramide synthase 6 (CerS6), Homo sapiens, UniProt Q6ZMG9, residues Met1-Asp350; C terminus predicted to be disordered removed; Purified as a mixture of monomer and dimer; the dimer SEC peak was used for the nanobody complexes and cryo-EM; also called acyl–CerS6; palmitoyl–CerS6; not shown: 10xHis, C-terminal, cleaved; Twin-Strep, C-terminal, cleaved) MAGILAWFWNERFWLPHNVTWADLKNTEEATFPQAEDLYLAFPLAFCIFMVRLIFERFVAKPCAIALNIQANGPQIAPPNAILEKVFTAITKHPDEKRLEGLSKQLDWDVRSIQRWFRQRRNQEKPSTLTRFCESMWRFSFYLYVFTYGVRFLKKTPWLWNTRHCWYNYPYQPLTTDLHYYYILELSFYWSLMFSQFTDIKRKDFGIMFLHHLVSIFLITFSYVNNMARVGTLVLCLHDSADALLEAAKMANYAKFQKMCDLLFVMFAVVFITTRLGIFPLWVLNTTLFESWEIVGPYPSWWVFNLLLLLVQGLNCFWSYLIVKIACKAVSRGKAGKWNPLHVSKDDRSD | – | – | – | 2

— publication PMC11919693, “Structural basis of the mechanism and inhibition of a human ceramide synthase” (Nature Structural & Molecular Biology, 2024)
